The results in this text go back to US20250092426, “CAS ENDONUCLEASES AND RELATED METHODS” (Flagship Pioneering Innovations VII, LLC, published 2025).

In this data set the target is T1, CasEnd-10 (synthetic construct).
T1 chain: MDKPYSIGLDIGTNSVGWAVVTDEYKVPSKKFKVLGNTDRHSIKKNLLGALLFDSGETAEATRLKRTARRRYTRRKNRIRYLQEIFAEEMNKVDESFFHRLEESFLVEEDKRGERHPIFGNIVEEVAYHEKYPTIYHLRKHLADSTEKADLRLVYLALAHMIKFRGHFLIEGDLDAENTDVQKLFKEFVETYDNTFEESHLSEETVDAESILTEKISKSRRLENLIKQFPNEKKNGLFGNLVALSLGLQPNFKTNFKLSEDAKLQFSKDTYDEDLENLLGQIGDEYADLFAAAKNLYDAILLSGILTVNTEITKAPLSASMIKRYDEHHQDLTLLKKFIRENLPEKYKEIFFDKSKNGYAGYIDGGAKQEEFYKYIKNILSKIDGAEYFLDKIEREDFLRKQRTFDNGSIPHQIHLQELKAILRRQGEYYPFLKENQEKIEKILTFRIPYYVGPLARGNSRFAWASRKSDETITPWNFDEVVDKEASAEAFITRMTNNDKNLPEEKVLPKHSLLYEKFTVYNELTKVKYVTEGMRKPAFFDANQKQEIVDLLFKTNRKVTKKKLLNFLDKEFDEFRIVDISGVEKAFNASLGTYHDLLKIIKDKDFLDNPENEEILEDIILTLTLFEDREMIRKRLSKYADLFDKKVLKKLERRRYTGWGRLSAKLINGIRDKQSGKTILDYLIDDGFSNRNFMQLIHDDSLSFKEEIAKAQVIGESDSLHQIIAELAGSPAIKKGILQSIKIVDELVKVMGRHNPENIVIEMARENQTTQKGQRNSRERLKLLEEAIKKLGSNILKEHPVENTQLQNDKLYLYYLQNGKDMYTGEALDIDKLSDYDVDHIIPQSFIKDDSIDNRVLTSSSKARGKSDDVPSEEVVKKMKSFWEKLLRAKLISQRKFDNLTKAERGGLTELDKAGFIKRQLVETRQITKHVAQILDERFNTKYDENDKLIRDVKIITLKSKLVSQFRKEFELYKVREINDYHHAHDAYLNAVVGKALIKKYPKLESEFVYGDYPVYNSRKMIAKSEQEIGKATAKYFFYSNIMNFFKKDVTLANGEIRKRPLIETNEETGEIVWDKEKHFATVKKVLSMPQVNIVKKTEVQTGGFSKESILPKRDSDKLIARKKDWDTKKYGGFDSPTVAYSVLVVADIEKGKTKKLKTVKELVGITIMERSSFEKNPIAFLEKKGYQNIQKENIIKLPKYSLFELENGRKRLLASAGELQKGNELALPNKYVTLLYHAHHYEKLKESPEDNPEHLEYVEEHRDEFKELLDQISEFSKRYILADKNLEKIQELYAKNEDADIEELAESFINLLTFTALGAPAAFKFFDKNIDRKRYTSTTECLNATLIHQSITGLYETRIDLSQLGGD
The experiment in a line: cell_activity; +++; K562, second nick guide SEQ 380; PAM not stated. As to the method: The ability of the candidate endonucleases, including endonucleases 1-38 (CasEnds 1-38) (set forth in Table 1 and SEQ ID NOS: 1-38, respectively), to mediate target nucleic acid editing in cells was assessed by amplicon sequencing of the endogenous hemoglobin subunit beta (eHBB) gene, wherein the percent of amplicons displaying the intended edit is measured. The editing system is comprised of a template RNA (designed to introduce the Single Nucleotide Polymorphism), a second nick guide RNA, and a fusion protein consisting of retroviral reverse transcriptase and the individual subject Cas endonuclease.
Briefly, 250 ng of plasmid DNA encoding the subject fusion protein (containing one of the subject CasEnds), 250 ng each of plasmid DNA encoding the template RNA and the second nick guide RNA were added to 15 μL Lonza SF buffer containing 250,000 K562 cells. Nucleofection was mediated utilizing program FF-120-DA on a Lonza nucleofector. The day of nucleofection was marked as day 0. At day 3, the cells were harvested and subjected to lysis buffer treatment overnight. Genomic DNA was extracted and used for targeted amplicon sequencing to evaluate the performance of each Cas endonucleases based on their percent edit efficiencies.

B1: HBB template RNA ; HBB protospacer (ssRNA ; dsDNA)
RNA: CAUGGUGCACCUGACUCCUGGUUUUAGAGCUAGAAAUAGCAAGUUAAAAUAAGGCUAGUCCGUUAUCAACUUGAAAAAGUGGCACCGAGUCGGUGCACGGCAGACUUCUCUGCCGGAGUCAGGUGC
DNA 1: CATGGTGCACCTGACTCCTG
DNA 2: CAGGAGTCAGGTGCACCATG
Take B1: the activity was ≥ 100 % of reference.
